Among the data in PMC6111841 are population of higher order oligomers and stoichiometry N values, retold here.

The target of experiment [1] is HelD (Bacillus subtilis) (UniProt O32215). Description: AUC; sedimentation velocity, HelD 5 uM in Buffer A (20 mM HEPES pH 7.5, 150 mM NaCl), 40,000 rpm, 4 °C, c(s) model in SEDFIT.
Experiment [2] has the same target. Put plainly: SEC; Superdex 200 Increase 10/300 GL, Buffer A (20 mM HEPES pH 7.5, 150 mM NaCl), 500 uL purified protein, 0.5 mL/min, 4 °C. A general note: SEC sorts molecules by how far they enter the pores of the column.

Where “and” joins values, the source holds several entries; their conditions need not be identical. Equal values may be shown once.

Chain of HelD (O32215 whole entry): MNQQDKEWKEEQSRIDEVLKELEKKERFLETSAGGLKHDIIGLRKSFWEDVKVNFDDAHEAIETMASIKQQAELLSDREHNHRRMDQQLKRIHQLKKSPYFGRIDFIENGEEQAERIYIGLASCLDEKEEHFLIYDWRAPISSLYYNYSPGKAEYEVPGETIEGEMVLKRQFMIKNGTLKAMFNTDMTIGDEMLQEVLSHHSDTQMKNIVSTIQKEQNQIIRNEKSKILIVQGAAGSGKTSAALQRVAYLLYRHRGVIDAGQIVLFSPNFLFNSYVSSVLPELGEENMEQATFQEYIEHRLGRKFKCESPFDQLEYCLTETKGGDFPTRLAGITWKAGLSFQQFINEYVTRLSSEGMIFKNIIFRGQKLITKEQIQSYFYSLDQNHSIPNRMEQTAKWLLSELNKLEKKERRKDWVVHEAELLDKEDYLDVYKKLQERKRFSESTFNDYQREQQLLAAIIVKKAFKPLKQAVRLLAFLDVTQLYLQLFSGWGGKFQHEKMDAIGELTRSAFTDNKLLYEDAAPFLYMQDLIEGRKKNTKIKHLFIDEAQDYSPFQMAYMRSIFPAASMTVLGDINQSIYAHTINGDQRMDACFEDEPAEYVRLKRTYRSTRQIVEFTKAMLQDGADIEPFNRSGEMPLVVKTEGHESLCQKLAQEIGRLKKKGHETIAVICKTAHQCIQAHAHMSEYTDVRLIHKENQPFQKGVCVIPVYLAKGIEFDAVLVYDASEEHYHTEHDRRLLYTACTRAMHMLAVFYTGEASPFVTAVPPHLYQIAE

One may read the stoichiometry N as the number of molecules, sites or subunits per partner or assembly. In turn, “HelD (from UniProt O32215 1-774) (natural protein)” yielded a population of higher order oligomers in experiment [1] of 20%. For the same substance, in experiment [2], the stoichiometry N was 2 and 3.
